Columns and labels:
Settings in all cases: NU/NU mice, i.v. 5 mg/kg, once a week, 2 doses, vs negative control
[1] = tested on: triple-negative breast cancer PDX LD1-2009-361918; type: in vivo
Procedure: 6-week-old NU/NU mice, female, weighing 18-21 g, were purchased from Beijing Vital River Laboratory Animal Technology Co., Ltd. The mice were subcutaneously inoculated with triple-negative breast cancer tumor mass (specimen no. 361918, obtained from Xi'an LIDE Biotech Co. Ltd.). […] After dosing, the tumor volume was measured twice a week using a vernier caliper and calculated according to the following formula: TV=(length*width^2)/2.

[2] = tested on: head and neck squamous cell carcinoma PDX LD1-0023-200615; assay: In vivo anti-tumor activity against human head and neck squamous cell carcinoma PDX LD1-0023-200615
Procedure: (§1) 6-week-old NU/NU mice, female, weighing 18-21 g, were purchased from Beijing Vital River Laboratory Animal Technology Co., Ltd. The mice were subcutaneously inoculated with head and neck squamous cell carcinoma tumor mass (specimen no. 200615, obtained from Xi'an LIDE Biotech Co. Ltd.). When the average tumor volume reached 150 mm^3, the antibody-drug conjugate Ab13-T1000-exatecan as prepared in Example 5 was administered intravenously at a dose of 10 mg/kg, the antibody-drug conjugate h6M24-vc0101 as prepared in Example 8 was administered intravenously at a dose of 5 mg/kg, and a negative control Vehicle group was set and administered intravenously with PBS at an equal dose, once a week for a total of 2 doses. After dosing, the tumor volume was measured twice a week using a vernier caliper and calculated according to the following formula: TV=(length*width^2)/2.

[3] = tested on: lung squamous cell carcinoma PDX LD1-0025-200615; assay: In vivo anti-tumor activity against human lung squamous cell carcinoma PDX LD1-0025-200615
Procedure: as §1, with “lung” for “head and neck”

B1: h6M24-vc0101: control drug: h6M24 (cofetuzumab) linked to Aur0101 via mc-VC-PAB linker, DAR about 4 (conjugate, chains of the INN, looked up)
VH: QVQLVQSGPEVKKPGASVKVSCKASGYTFTDYAVHWVRQAPGKRLEWIGVISTYNDYTYNNQDFKGRVTMTRDTSASTAYMELSRLRSEDTAVYYCARGNSYFYALDYWGQGTSVTVSS
VL: EIVLTQSPATLSLSPGERATLSCRASESVDSYGKSFMHWYQQKPGQAPRLLIYRASNLESGIPARFSGSGSGTDFTLTISSLEPEDFAVYYCQQSNEDPWTFGGGTKLEIK
modifications: Aur0101 via mc-VC-PAB linker, DAR 4
[1]
  tumor growth inhibition (tumor volume over time): does not produce any tumor growth inhibitory effect
[2]
  tumor growth inhibition (tumor volume over time): significantly inhibit tumor growth
[3]
  tumor growth inhibition (tumor volume over time): partially inhibit tumor growth

From patent US12534541B2, “Anti-PTK7 antibody and uses thereof” (MABCARE THERAPEUTICS, priority 2023, dated 2026)
